The record followed here is patent publication US10752881B2, “Trans-differentiation of differentiation cells” (Helmholtz Zentrum München-Deutsches Forschungszentrum für …, priority 2014, dated 2020).

Residues, ends and D or L forms follow the SMILES beside them. *: point of attachment. Cbz = O=C(OCc1ccccc1)*; CH2F = FC*

One series deals with adult human fibroblasts. The series is described as follows: Neuronal reprogramming of adult human fibroblasts. The format is cell-based. Particulars: for effect on reprogramming efficiency of human fibroblasts: combination Ascl1/Bcl-2/Vdr, 60 DPI. The text has this:
To determine whether Bcl-2 would also efficiently enhance reprogramming into neurons in cells from other species, we used fibroblasts obtained from a person that were expanded and transduced as described above with the retroviral vector encoding Ascl1 and RFP alone or in combination with a second vector encoding the human BCL-2 (hBCL-2) and the reporter GFP.
Primary cultures of human skin fibroblasts were established from 3 mm diameter full thickness punch biopsy specimens which were mechanically dissociated before plating. […] For reprogramming experiments cells were plated on coverslips in 24-well plates as described above for astrocytes and 48 hours after infection medium was changed to DMEM high glucose with GlutaMAX and 1% fetal calf serum, penicillin/streptomycin and B27 supplement (Gibco). During the reprogramming process, medium was replaced by conditioned-astrocyte medium every 3 days. Conditioned-astrocyte medium is obtained by growing astroglial culture with differentiation medium (see Cell cultures of astroglia from the postnatal mouse cerebral cortex above) during minimum of 2 days. Then the medium is collected from astrocytes and used for reprogramming of the human cells.
For the expression of neurogenic transcription factors we used self-inactivating retroviral vectors containing the actin promoter with cytomegalovirus enhancer (pCAG) driving the expression of the gene of interest (flag/myc-Ascl1, flag-Neurog2, Bcl-2 or Dlx-2) linked to a fluorescent reporter by internal ribosomal entry site (IRES) as previously described (Heinrich et al., 2011). The mouse version of Bcl-2 cDNA was obtained from Source BioScience (IRAVp968H01145D; pCMV-SPORT6.1-Bcl-2) and the human cDNA version (h-Bcl-2) from addgene (Plasmid number 8793; pMIG-Bcl-2-IRES-GFP) to generate RV-pCAG-flag/myc-Ascl1-IRES-Bcl-2, RV-pCAG-flag-Neurog2-IRES-Bcl-2 or RV-pCAG-Bcl-2-IRES-GFP, which encodes for both Bcl-2 and the reporter GFP. The Bcl-2 mutants A-Bcl-2 and EE-Bcl-2 were produced by directed mutagenesis with the oligos 5′-[…]-3′ (SEQ ID NO: 18) (and complementary (SEQ ID NO: 20)) and 5′-[…]-3′ (SEQ ID NO: 19) (and complementary (SEQ ID NO: 21)) respectively, to generate the vectors pCMV-SPORT6.1-A-Bcl-2, RV-pCAG-Ascl1-IRES-A-Bcl-2 and RV-pCAG-Neurog2-IRES-A-Bcl-2 and the corresponding EE-Bcl-2 versions. Mutations were verified by sequencing. The murine Vdr was obtained from Sino Biological (MG51106-G, Vector pGEM-T) and sub-cloned in the retroviral vector to generate RV-pCAG-Vdr-IRES-GFP.

The test system of another series is reactive glial cells. The experiment in a line: In vivo conversion of reactive glial cells into neurons after stab wound injury. The following applies: for acquisition of neuronal marker NeuN by singly transduced cells: single GFP+ or RFP+ cells. The text has this:
A, Experimental protocol for stab wound injury and subsequent infection with retroviral vectors (Neurog2/RFP and Bcl-2/GFP) or treatment with calcitriol, analysed at 10 or 20 days post-infection (DPI).
To highlight the relevance of our findings we next tested the efficiency of the methods described above in vivo. For that, we performed stab wound injury followed by injection of retroviral vectors encoding Neurog2-IRES-RFP and Bcl-2-IRES-GFP next to the injury site (FIG. 7A) using a previously described protocol (see Heinrich et al., 2014). Control infected cells were glial in nature, mostly NG2+ cells of the oligodendrocyte lineage or S100b/GFAP+ astrocytes as described before (Heinrich et al., 2014). […] To examine whether key metabolic constraints observed to be important for fate conversion in vitro were also relevant in vivo we tested activation of the Vitamin D receptor pathway by the ligand calcitriol.
Operations were performed in accordance with the policies of the state of Bavaria under license number 55.2-1-54-2532-171-11. A unilateral stab wound lesion (1 mm long, 0.6 mm deep from the dura mater) was performed in the right neocortex with a 19 gauge-thick lancet without injuring the cortical white matter, as previously described (Sirko et al. 2013; Simon et al. 2011). Three days later, 0.5-1 μl of retroviral suspension (Neurog2-IRES-RFP and Bcl-2-IRES-GFP, 1:1) was injected in the site of the lesion with a glass capillary connected to a microinjector (Nanoliter2000+Sys-Micro4, World Precision Instrument), at a rate of 30-60 nl/min. The needle was retracted 5 minutes after completing the injection. When indicated in the text, 200 μl of Calcitriol (Tocris) diluted in corn oil (final concentration of 1 ng/μl) were administered through oral gavage 2 days after the retroviral injection. The dosage was determined according with previous publications (Nashold et al. 2013).
Animals were anesthetized and transcardially perfused with 1× phosphate-buffered saline (PBS), followed by 4% paraformaldehyde (PFA) in PBS. Brains were postfixed for 2 hours, washed twice with PBS and embedded in 4% agarose/water. Finally, 60 μm-thick coronal sections were cut using a vibrating microtome (Leica).

In series [1] the test system is postnatal mouse astrocytes. Particulars: for effect on reprogramming efficiency of astrocytes: Ascl1-transfected, 4 days of calcitriol treatment.
Description: (C) Histogram of astroglial cultures transfected with Ascl1-RFP-encoding plasmid alone or in combination with WT-Bcl-2, EE-Bcl-2 or A-Bcl-2 at 4 days post-transfection (DPT). The number of transfected cells (RFP+) at final time point (4 DPT) was normalized to the initial number of transfected cells (1 DPT) to calculate the % of survival. The % of neuronal conversion was analysed by β-III-tubulin immunostaining and normalized to total number of RFP+ cells at the end of the experiment. Error bars indicate ±SD. *p<0.05, **p<0.01; ANOVA Tukeys post-test.
A, Quantifications at 5 DPT (days post-transfection) showing the effect of the inhibitor of ferroptosis, α-toc and the inhibitor of apoptosis, ZVAD in survival/efficiency of conversion of astroglial cells transfected with Ascl1-RFP.
C, Percentage of neurons in astroglial cells transfected with Ascl1-encoding plasmid alone or in combination with Bcl-2 and/or Vdr at 5 DPT after 4 days of treatment with calcitriol or untreated.
After removal of the meninges, grey matter tissue was dissected from P5-P7 cerebral cortex of C57BL/6J mice and dissociated mechanically. Subsequently, cells were centrifuged for 5 min at 1000 rpm, re-suspended, and plated in medium consisting of DMEM/F12 (Gibco), 3.5 mM glucose (Sigma), 10% fetal calf serum (Gibco), 5% horse serum (Gibco), penicillin/streptomycin (Gibco) and supplemented with B27 (Gibco), 10 ng/mL epidermal growth factor (EGF, Roche) and 10 ng/mL fibroblast growth factor 2 (FGF2, Roche). After one week expansion cells were harvested using trypsin/EDTA (Gibco) and plated onto poly-D-lysine (Sigma-Aldrich) coated glass coverslips in 24-well plates (BD Biosciences) or directly onto the plastic for time lapse experiments at a density of 60,000 cells per well in the same medium. After 24 hours cells were either transfected with plasmid or infected with retroviral vectors and after further 24 hours medium was changed to differentiation medium composed of DMEM/F12 high glucose with GlutaMAX, penicillin/streptomycin and B27 supplement (Gibco) to allow neuronal differentiation.
For transfection DNA-liposome complexes were prepared in Optimem medium (Invitrogen) using the retroviral plasmids described below and Lipofectamine 2000 (Invitrogen). Astrocyte cultures were exposed to DNA-liposome complexes at a concentration of 0.5 μg DNA per 400 μl of Optimem medium for 4 hours and cultured after that in the differentiation medium as above.
Cells were fixed in 4% paraformaldehyde (PFA) in phosphate-buffered saline (PBS) for 10 min at room temperature (RT), washed in PBS and pretreated in 0.5% Triton X-100 in PBS for 30 min, followed by incubation in 2% BSA and 0.5% Triton X-100 in PBS for 30 min. Primary antibodies were incubated on specimen overnight at 4° C. in 2% BSA, 0.5% Triton X-100 in PBS.
Series [2] concerns Mouse embryonic fibroblasts (MEFs). The series is described as follows: Fibroblast-to-neuron reprogramming of MEFs with retroviral vectors, β-III-tubulin immunostaining. The format is cell-based.
Series [3] has as its system astroglia isolated from mouse cerebral cortex at postnatal day 5-7. The experiment in a line: Continuous single cell live imaging of Ascl1-mediated astrocyte-to-neuron reprogramming. Particulars: for increase of proportion of cells successfully completing reprogramming into neurons: Ascl1 + Bcl-2 vs Ascl1 only. The format is cell-based. The source says:
In order to identify the cellular mechanisms of neuronal reprogramming, astroglia isolated from mouse cerebral cortex at postnatal day 5-7 were transfected with an Ascl1-encoding vector thereby targeting non-proliferating cells in addition to those transduced by approaches such as MLV-based retroviral vectors that require proliferation and break-down of the nuclear envelope for successful gene transfer. Our transfection protocol (Heinrich et al., PLoS biology 8, e1000373 (2010); Heinrich et al., Nature protocols 6, 214-228 (2011)) enables cells labelled by red fluorescent protein (RFP) 24 hours after transfection to be subject to continuous live imaging for the main phase of reprogramming (i.e. 6 days). Glial and neuronal cells were identified by their morphology, with the former displaying a flat astrocyte-like morphology and the latter with a round cell soma and thin processes (monopolar, bipolar and multipolar) at least 3× longer than the cell soma. This morphology-based classification was confirmed by post-imaging immunostaining (FIG. 1A). Few of the cells transduced with Ascl1 divided during the 150 hours observation (15%: FIG. 1E). Thus, the vast majority of direct neuronal reprogramming occurs in the absence of proliferation in this system.
Time-lapse video microscopy was performed with a cell observer (Zeiss) at a constant temperature of 37° C. and 8% CO2. Phase contrast images were acquired every 5 minutes, and fluorescence pictures every 4-6 hours for 6.5-7.5 days using a 10× phase contrast objective (Zeiss), and an AxioCamHRm camera with a self-written VBA module remote controlling Zeiss AxioVision 4.7 software (Rieger and Schroeder, Journal of cellular biochemistry 108, 343-352 (2009)). Movies were assembled using Image J 1.42q (National Institute of Health, USA) software and are played at speed of 3 frames per second.

A further series concerns vitamin d receptor (vdr). The experiment in a line: Vdr expression during neuronal reprogramming (immunostaining). The format is cell-based. Particulars: during neuronal reprogramming with Ascl1, 5 DPI. As to the method:
A, Percentage of cells expressing Vdr in cultures infected with Ascl1-encoding vector alone or Ascl1+A-Bcl-2 at 5 DPI. Vdr presence was determined by immunostaining (B). Note that Bcl-2 increases the proportion of cells expressing endogenous Vdr during neuronal reprogramming.

Setting [4] is: astroglial cells transfected with Ascl1-RFP, 5 DPT.

In the case of `C=C1/C(=C\C=C2/CCC[C@]3(C)[C@@H]([C@H](C)CCCC(C)(C)O)CC[C@@H]23)C[C@@H](O)C[C@@H]1O` [calcitriol, reference compound], in the series with adult human fibroblasts, the “effect on reprogramming efficiency of human fibroblasts” value is reported as “enhance reprogramming efficiency”. Also, the “effect on morphology and maturation state of the neurons” value with reactive glial cells (Neurog2 + Bcl-2, calcitriol 200 ng orally, 23 days after viral infection) is “profoundly improved morphology and maturation state of the neurons”. For the same molecule, the “proportion of NeuN+ neurons of all co-transduced cells” value in the series on reactive glial cells (Neurog2 + Bcl-2 co-expression, calcitriol 200 ng orally 2 days after viral injection, 10 DPI) is recorded as approximately 90%. Moreover, the “effect on reprogramming efficiency of astrocytes” value in series [1] (5 DPT) is “enhance reprogramming efficiency”.

As for “hBcl-2: human BCL-2 encoded by a retroviral vector with the reporter GFP”, the “increase of β-III-tubulin+ cells compared to Ascl1/RFP expressing cells” value with adult human fibroblasts (co-transduced with Ascl1) stood at 32 × fold. For the same molecule, in the series on adult human fibroblasts (co-transduced with Ascl1, fibroblasts from a person), the “co-infected cells (RFP and GFP) that were β-III-tubulin+” value was “up to 70%”.

`COC(=O)C[C@H](NC(=O)[C@H](C)NC(=O)[C@@H](NC(=O)OCc1ccccc1)C(C)C)C(=O)CF` [ZVAD] (Cbz-Val-Ala-Asp(OMe)-CH2F): the “effect on efficiency of conversion (reprogramming efficiency)” value in series [1] (setting [4]) was “not conversion efficiency”.

Take `Cc1c(C)c2c(c(C)c1O)CC[C@@](C)(CCC[C@H](C)CCC[C@H](C)CCCC(C)C)O2` [α-tocopherol]: in series [1] (setting [4]), the “effect on efficiency of conversion (reprogramming efficiency)” value was “increase reprogramming efficiency” and the “effect on survival / cell death” value is given as “reduces cell death”.

B1: Vdr: murine vitamin D receptor over-expressed from retroviral vector RV-pCAG-Vdr-IRES-GFP (protein, listed as Mus musculus)
chain: MEAMAASTSLPDPGDFDRNVPRICGVCGDRATGFHFNAMTCEGCKGFFRRSMKRKALFTCPFNGDCRITKDNRRHCQACRLKRCVDIGMMKEFILTDEEVQRKREMIMKRKEEEALKDSLRPKLSEEQQHIIAILLDAHHKTYDPTYADFRDFRPPIRADVSTGSYSPRPTLSFSGDSSSNSDLYTPSLDMMEPASFSTMDLNEEGSDDPSVTLDLSPLSMLPHLADLVSYSIQKVIGFAKMIPGFRDLTSDDQIVLLKSSAIEVIMLRSNQSFTLDDMSWDCGSQDYKYDITDVSRAGHTLELIEPLIKFQVGLKKLNLHEEEHVLLMAICIVSPDRPGVQDAKLVEAIQDRLSNTLQTYIRCRHPPPGSHQLYAKMIQKLADLRSLNEEHSKQYRSLSFQPENSMKLTPLVLEVFGNEIS
With B1, the “effect on reprogramming efficiency of human fibroblasts” value with adult human fibroblasts is reported as “enhance reprogramming efficiency”. The “effect on reprogramming efficiency of astrocytes” value in series [1] (5 DPT) was “enhance reprogramming efficiency”.

B2: Neurog2: neurogenic transcription factor expressed from retroviral vector with RFP (protein, UniProt P70447 1-263, looked up)
Neurogenin-2: MFVKSETLELKEEEEVLMLLGSASPASATLTPMSSSADEEEDEELRRPGSARGQRGAEAEQGVQGSPASGAGGCRPGRLLGLMHECKRRPSRSRAVSRGAKTAETVQRIKKTRRLKANNRERNRMHNLNAALDALREVLPTFPEDAKLTKIETLRFAHNYIWALTETLRLADHCAGAGGLQGALFTEAVLLSPGAALGASGDSPSPPSSWSCTNSPASSSNSTSPYSCTLSPASPGSDVDYWQPPPPEKHRYAPHLPLARDCI
Take B2: in series [2] (Neurog2-based retroviral vectors, 15 days after infection), the “proportion of neurons induced from MEFs, of all infected cells” value is 10%. The “acquisition of neuronal marker NeuN by singly transduced cells” value with reactive glial cells (10 DPI) was “rarely acquired the neuronal marker NeuN”.

B3: Bcl-2: mouse Bcl-2 cDNA expressed from plasmid or retroviral vector; anti-apoptotic member of the Bcl-2 family (protein, listed as Mus musculus)
chain: MAQAGRTGYDNREIVMKYIHYKLSQRGYEWDAGDADAAPLGAAPTPGIFSFQPESNPMPAVHRDMAARTSPLRPLVATAGPALSPVPPVVHLTLRRAGDDFSRRYRRDFAEMSSQLHLTPFTARGRFATVVEELFRDGVNWGRIVAFFEFGGVMCVESVNREMSPLVDNIALWMTEYLNRHLHTWIQDNGGWDAFVELYGPSMRPLFDFSWLSLKTLLSLALVGACITLGAYLGHK
In the case of B3, in series [3] (Ascl1 + Bcl-2), the “fraction of cells with acquired neuronal morphology dying” value is recorded as “about ⅓”, the “survival rate of remaining glial cells” value is 10% and the “survival rate of successfully converted cells” value is 2/3. For the same molecule, the “effect on rate of proliferation during reprogramming” value in series [3] (Ascl1 + Bcl-2, 150 h) is given as “did not affect the rate of proliferation during reprogramming”. Also, in series [3] (Ascl1 + Bcl-2, first 50-75 h of tracking), the “effect on speed of astrocyte-to-neuron conversion” value is “accelerated astrocyte-to-neuron conversion”. Besides, the “increase of proportion of cells successfully completing reprogramming into neurons” value in series [3] (at 50 h of tracking) is approximately 8 fold. For the same molecule, the “increase of proportion of cells successfully completing reprogramming into neurons” value in series [3] (end of the tracking time period) is recorded as “over 3 fold”. Moreover, the “effect on survival of cells during neuronal conversion” value in series [3] (co-transduction with Ascl1, 150 hours imaging) was “robustly enhanced survival of cells during neuronal conversion”. Moreover, the “neuronal conversion in MEFs (β-III-tubulin)” value in series [2] (Ascl1-based retroviral vectors, 14 days after infection) is 42.8%. The “effect on expression of vdr” value in the series on vitamin d receptor (vdr) is listed as “induces expression of vdr”. Besides, the “neuronal conversion of co-transduced cells (GFP+/RFP+)” value with reactive glial cells (Neurog2-IRES-RFP and Bcl-2-IRES-GFP co-transduced, 10 DPI) was “many co-transduced cells (GFP+/RFP+) exhibited elongated neuronal-shape morphology and were immunoreactive for NeuN”. Moreover, the “acquisition of neuronal marker NeuN by singly transduced cells” value in the series with reactive glial cells (10 DPI) is recorded as “rarely acquired the neuronal marker NeuN”. Moreover, the “effect on total number of surviving cells and reprogrammed neurons” value in series [1] (co-transfected with Ascl1/RFP, 6 and 12 days) was “distinctly increased the total number of surviving cells and reprogrammed neurons”.
